Assay results reported in patent US20190060404A1 (published 2019).
Each block holds one molecule with its values, some of them ahead of it.

Key:
human FGFR2-Fc (human) = human FGFR2-Fc (human) (UniProt P21802); test: SPR, FGFR2-Fc fixed on the sensor, VEGF-B167 added
FGFR1-Fc = FGFR1-Fc (UniProt P11362); test: SPR, FGFR1-Fc fixed on the sensor, VEGF-B167 added
[1] = biological target: T1, VEGFR2 of C57B16 mouse retina and brain tissue (mouse, UniProt P35918 20-1345, limits assumed); test: co-immunoprecipitation with anti-FGFR2 antibody from mouse brain and retinal tissue
T1 construct: Endogenous protein in tissue lysate
Method: (§1) Co-immunoprecipitation assay: brain tissues and retinae of the C57B16 mice were separated, and were homogenated after added with RIPA buffer comprising protease and phosphatase inhibitor. Supernatant was obtained by centrifuging. After protein quantification, the supernatant was incubated with anti-FGFR1 antibody at 4° C. overnight. Magnetic beads combined with A/G protein were added to capture the antibody complex. 10% PAGE electrophoresis and transfer to a PVDF film were performed successively for the complex, then the complex was incubated with the primary antibody of VEGFR1, VEGFR2 or FGFR1, and was further incubated with HRP-labeled secondary antibody, ECL luminescence reagent was added to display color in the end.
Co-Immunoprecipitation: brain tissue and retinae were extracted from the C57B16 mice. The C57B16 mice were intravitreally injected with BSA (500 ng/eye), FGF2 (100 ng/eye) or VEGF-B₁₆₇ (500 ng/eye), and their retinae were extracted 1 hour after the injection. The brain tissue and retinae, and the retinae from the injected C57B16 mice were treated by the operational procedure described in Embodiment 5, and incubated with anti-FGFR2 antibody for co-immunoprecipitation (with VEGFR1 or VEGFR2).

[2] = biological target: T1, VEGFR2 of C57B16 mouse retina and brain …; test: co-immunoprecipitation with anti-FGFR1 antibody from mouse retina and brain tissue
Method: as §1

T1 sequence (P35918 20-1345 limits assumed, one chain of several): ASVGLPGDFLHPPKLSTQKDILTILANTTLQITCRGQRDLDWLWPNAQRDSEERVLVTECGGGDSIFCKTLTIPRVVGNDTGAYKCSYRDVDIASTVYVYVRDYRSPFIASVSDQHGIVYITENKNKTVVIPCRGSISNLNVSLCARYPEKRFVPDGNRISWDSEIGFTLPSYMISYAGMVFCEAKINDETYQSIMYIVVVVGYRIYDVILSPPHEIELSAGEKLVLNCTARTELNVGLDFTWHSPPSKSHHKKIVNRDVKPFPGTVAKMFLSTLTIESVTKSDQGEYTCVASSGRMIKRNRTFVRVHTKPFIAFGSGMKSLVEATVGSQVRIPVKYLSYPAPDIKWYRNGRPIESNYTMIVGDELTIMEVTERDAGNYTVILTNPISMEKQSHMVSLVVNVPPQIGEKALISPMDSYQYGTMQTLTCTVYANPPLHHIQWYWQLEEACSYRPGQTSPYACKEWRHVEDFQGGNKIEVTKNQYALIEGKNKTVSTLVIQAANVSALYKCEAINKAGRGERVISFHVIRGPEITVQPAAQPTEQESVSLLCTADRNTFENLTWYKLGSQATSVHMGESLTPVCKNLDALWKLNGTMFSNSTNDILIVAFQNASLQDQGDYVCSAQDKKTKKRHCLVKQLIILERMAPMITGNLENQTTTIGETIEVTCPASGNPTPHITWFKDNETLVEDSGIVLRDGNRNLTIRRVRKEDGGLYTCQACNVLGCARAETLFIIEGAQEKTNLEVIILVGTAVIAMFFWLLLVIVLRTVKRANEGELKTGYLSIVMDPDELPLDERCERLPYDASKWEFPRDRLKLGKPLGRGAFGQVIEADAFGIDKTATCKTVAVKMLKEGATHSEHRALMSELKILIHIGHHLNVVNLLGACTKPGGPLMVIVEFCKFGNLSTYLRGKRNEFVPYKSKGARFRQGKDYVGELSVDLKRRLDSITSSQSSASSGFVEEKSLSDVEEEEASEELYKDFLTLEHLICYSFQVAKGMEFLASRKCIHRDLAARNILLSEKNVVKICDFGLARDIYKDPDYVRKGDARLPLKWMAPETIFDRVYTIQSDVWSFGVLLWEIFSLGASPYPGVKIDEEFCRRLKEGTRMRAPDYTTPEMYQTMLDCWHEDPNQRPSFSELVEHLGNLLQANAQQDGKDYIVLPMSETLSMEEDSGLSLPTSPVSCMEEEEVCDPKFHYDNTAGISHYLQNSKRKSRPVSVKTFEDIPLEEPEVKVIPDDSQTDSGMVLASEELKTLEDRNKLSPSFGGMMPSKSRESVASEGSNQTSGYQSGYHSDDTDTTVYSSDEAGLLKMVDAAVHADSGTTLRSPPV
Sequence of FGFR1-Fc (P11362 22-376 limits assumed): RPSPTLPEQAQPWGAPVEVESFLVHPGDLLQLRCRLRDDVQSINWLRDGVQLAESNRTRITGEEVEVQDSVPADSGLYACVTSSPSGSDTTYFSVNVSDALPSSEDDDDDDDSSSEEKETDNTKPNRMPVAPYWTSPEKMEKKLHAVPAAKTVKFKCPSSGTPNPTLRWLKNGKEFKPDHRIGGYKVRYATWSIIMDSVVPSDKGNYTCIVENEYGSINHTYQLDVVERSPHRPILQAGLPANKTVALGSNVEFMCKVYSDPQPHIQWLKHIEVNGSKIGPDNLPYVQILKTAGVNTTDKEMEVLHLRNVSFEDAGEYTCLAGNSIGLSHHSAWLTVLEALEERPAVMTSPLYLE

Kd (human FGFR2-Fc (human)): 112 nM | Kd (FGFR1-Fc): 15 nM
Molecule: VEGF-B167 (from UniProt P49765 22-207) (ligand)

binding result [1]: no binding
B1: FGFR2 of C57B16 mouse tissue and mouse primary SMC (receptor, UniProt P21803 22-821, looked up)
chain: RPSFSLVEDTTLEPEEPPTKYQISQPEAYVVAPGESLELQCMLKDAAVISWTKDGVHLGPNNRTVLIGEYLQIKGATPRDSGLYACTAARTVDSETWIFMVNVTDAISSGDDEDDTDSSEDVVSENRSNQRAPYWTNTEKMEKRLHACPAANTVKFRCPAGGNPTSTMRWLKNGKEFKQEHRIGGYKVRNQHWSLIMESVVPSDKGNYTCLVENEYGSINHTYHLDVVERSPHRPILQAGLPANASTVVGGDVEFVCKVYSDAQPHIQWIKHVEKNGSKNGPDGLPYLKVLKAAGVNTTDKEIEVLYIRNVTFEDAGEYTCLAGNSIGISFHSAWLTVLPAPVREKEITASPDYLEIAIYCIGVFLIACMVVTVIFCRMKTTTKKPDFSSQPAVHKLTKRIPLRRQVTVSAESSSSMNSNTPLVRITTRLSSTADTPMLAGVSEYELPEDPKWEFPRDKLTLGKPLGEGCFGQVVMAEAVGIDKDKPKEAVTVAVKMLKDDATEKDLSDLVSEMEMMKMIGKHKNIINLLGACTQDGPLYVIVEYASKGNLREYLRARRPPGMEYSYDINRVPEEQMTFKDLVSCTYQLARGMEYLASQKCIHRDLAARNVLVTENNVMKIADFGLARDINNIDYYKKTTNGRLPVKWMAPEALFDRVYTHQSDVWSFGVLMWEIFTLGGSPYPGIPVEELFKLLKEGHRMDKPTNCTNELYMMMRDCWHAVPSQRPTFKQLVEDLDRILTLTTNEEYLDLTQPLEQYSPSYPDTSSSCSSGDDSVFSPDPMPYEPCLPQYPHINGSVKT
notes: Endogenous protein in tissue lysate (co-immunoprecipitation) or on cells (proximity ligation assay)

binding result [2]: no binding
B2: FGFR1 of C57B16 mouse retina and brain tissue (receptor, UniProt P16092 22-822, looked up)
chain: RPAPTLPEQAQPWGVPVEVESLLVHPGDLLQLRCRLRDDVQSINWLRDGVQLVESNRTRITGEEVEVRDSIPADSGLYACVTSSPSGSDTTYFSVNVSDALPSSEDDDDDDDSSSEEKETDNTKPNRRPVAPYWTSPEKMEKKLHAVPAAKTVKFKCPSSGTPNPTLRWLKNGKEFKPDHRIGGYKVRYATWSIIMDSVVPSDKGNYTCIVENEYGSINHTYQLDVVERSPHRPILQAGLPANKTVALGSNVEFMCKVYSDPQPHIQWLKHIEVNGSKIGPDNLPYVQILKTAGVNTTDKEMEVLHLRNVSFEDAGEYTCLAGNSIGLSHHSAWLTVLEALEERPAVMTSPLYLEIIIYCTGAFLISCMLGSVIIYKMKSGTKKSDFHSQMAVHKLAKSIPLRRQVTVSADSSASMNSGVLLVRPSRLSSSGTPMLAGVSEYELPEDPRWELPRDRLVLGKPLGEGCFGQVVLAEAIGLDKDKPNRVTKVAVKMLKSDATEKDLSDLISEMEMMKMIGKHKNIINLLGACTQDGPLYVIVEYASKGNLREYLQARRPPGLEYCYNPSHNPEEQLSSKDLVSCAYQVARGMEYLASKKCIHRDLAARNVLVTEDNVMKIADFGLARDIHHIDYYKKTTNGRLPVKWMAPEALFDRIYTHQSDVWSFGVLLWEIFTLGGSPYPGVPVEELFKLLKEGHRMDKPSNCTNELYMMMRDCWHAVPSQRPTFKQLVEDLDRIVALTSNQEYLDLSIPLDQYSPSFPDTRSSTCSSGEDSVFSHEPLPEEPCLPRHPTQLANSGLKRR
notes: Endogenous protein in tissue lysate
